Read-outs that look alike come from different tables or passages of the source.
Molecular target: T1, fibrin (Homo sapiens, UniProt P02671+P02675+P02679)
T1 construct: purchased Calbiochem (EMD Biosciences, Inc., La Jolla, Calif.)
T1 sequence (P02671 36-629 limits assumed): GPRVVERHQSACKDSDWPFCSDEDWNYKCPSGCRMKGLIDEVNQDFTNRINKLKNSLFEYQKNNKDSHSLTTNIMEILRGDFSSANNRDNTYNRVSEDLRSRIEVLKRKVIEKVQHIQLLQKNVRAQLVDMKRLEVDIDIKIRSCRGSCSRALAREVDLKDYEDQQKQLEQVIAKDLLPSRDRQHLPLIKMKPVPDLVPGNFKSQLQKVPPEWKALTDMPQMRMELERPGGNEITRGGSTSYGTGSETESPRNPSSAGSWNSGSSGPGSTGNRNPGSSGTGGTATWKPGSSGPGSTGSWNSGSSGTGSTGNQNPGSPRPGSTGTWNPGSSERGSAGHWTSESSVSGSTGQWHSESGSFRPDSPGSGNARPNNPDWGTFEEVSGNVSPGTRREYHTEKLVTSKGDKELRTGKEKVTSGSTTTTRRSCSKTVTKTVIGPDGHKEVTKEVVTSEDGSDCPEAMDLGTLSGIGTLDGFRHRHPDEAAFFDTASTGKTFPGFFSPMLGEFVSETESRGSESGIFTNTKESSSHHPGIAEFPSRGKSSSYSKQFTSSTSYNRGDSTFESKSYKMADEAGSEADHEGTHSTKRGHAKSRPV
T1 sequence (P02675 45-491 limits assumed): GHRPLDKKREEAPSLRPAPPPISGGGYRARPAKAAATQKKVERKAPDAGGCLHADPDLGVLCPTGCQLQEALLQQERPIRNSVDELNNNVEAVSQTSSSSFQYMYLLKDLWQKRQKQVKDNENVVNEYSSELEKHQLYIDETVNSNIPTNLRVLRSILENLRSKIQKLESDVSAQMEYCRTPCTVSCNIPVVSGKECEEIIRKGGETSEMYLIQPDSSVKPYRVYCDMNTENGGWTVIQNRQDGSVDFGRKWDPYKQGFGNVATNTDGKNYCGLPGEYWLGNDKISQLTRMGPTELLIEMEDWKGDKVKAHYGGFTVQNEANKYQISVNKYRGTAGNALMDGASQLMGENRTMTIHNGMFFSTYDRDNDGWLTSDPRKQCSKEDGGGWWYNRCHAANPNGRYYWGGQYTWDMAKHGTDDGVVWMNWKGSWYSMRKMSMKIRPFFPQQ
T1 sequence (P02679 27-437 isoform P02679-2 limits assumed): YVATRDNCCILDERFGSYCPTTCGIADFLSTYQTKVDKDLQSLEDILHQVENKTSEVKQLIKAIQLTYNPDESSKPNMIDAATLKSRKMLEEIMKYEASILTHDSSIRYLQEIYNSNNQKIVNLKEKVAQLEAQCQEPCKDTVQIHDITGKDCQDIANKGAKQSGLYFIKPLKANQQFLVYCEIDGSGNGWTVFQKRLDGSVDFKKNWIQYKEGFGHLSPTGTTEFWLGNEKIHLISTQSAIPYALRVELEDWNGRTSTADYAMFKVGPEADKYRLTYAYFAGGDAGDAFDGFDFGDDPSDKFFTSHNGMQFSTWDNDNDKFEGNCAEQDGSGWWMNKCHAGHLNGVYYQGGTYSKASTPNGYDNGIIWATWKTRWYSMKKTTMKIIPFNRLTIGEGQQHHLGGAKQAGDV
Assay: Two-stage fibrin pad ELISA, Scatchard and van't Hoff analysis
Format: binding
Details: for ΔH°: van't Hoff plot
Procedure: Added 100 μl 0.2% BSA/PBS to each well and incubated at 37° C. for 1 hour. All subsequent incubations were also at 37° C. Aspirated the wells and washed the plate 3× with PBS-T. Added Activase dilutions (10, 5, 2.5, 1.25, and 0.625 μg/ml PBS-T) to replicate wells ([…]). Incubated for 2 hours. Removed the contents of each well and pooled all samples within each dilution. Stored pooled samples at 4° C. For tPA-ELIP dilutions (in PBS), the third wash before adding the samples was with PBS. Stored the pooled tPA-ELIP samples in polypropylene tubes.
Added monoclonal anti-tPA capture antibody (Ab) (5 μg/ml coating buffer; […]) to rows B, C, E and G of a fresh microplate. Incubated in a humidified chamber at 4° C. overnight. All subsequent incubations were in humidified chambers at 37° C. at volumes of 50 μl/well, followed by aspiration of wells and 3× washes with PBS-T. Blocked all rows with conjugate buffer for 1 hour. Added tPA standards (50, 25, 12.5, 6.25 and 3.13 ng/ml) and pooled sample dilutions (in PBS-T) in duplicate to sample (B, C, E, G) and background (A, D, F, H) wells. Incubated for 2 hours. Added secondary detection Ab (10 μg sheep anti-tPA/ml 0.1% BSA in PBS-T) to all wells and incubated 1 hour, followed by a conjugate incubation (3,000× diluted with conjugate buffer; 1 hour). Added 50 μl of substrate buffer+500 of substrate (1 tablet/5 ml substrate buffer) to each well. Incubated at 37° for 15 minutes. Immediately quenched with 5 μl of 1M sodium hydroxide/well. Read the plate at 405 nm. Determined net absorbance (A405) by subtracting background OD from sample OD (e.g., B4-A4 or E7-F7).
Calculated the undiluted tPA concentrations of each pooled sample from the standard curve. These represented the free fractions ([F]) of the sample dilutions after equilibrium incubation with fibrin. Obtained the bound concentrations ([B]) by subtracting the free values from the total tPA concentration of the starting dilutions. Prepared Scatchard plots by plotting [B] (x-axis) vs. B/F (y-axis). The slope=−Kassoc and the y-intercept=Kassoc[n], where [n] was the concentration of exposed tPA binding sites on the fibrin pads.
Dilutions of untreated, sham-treated (control) and PPACK-treated (tPA(P)) tPA, as well as tPA(P) conjugated to ELIP (tPA(P)-ELIP), were incubated on replicate fibrin pads, prepared in microplate wells according to a modification of the method of Edgell et al. (1996). Human thrombin was added to a solution of 0.5 mg/ml of human fibrinogen in 0.02M phosphate-buffered saline, pH 7.4 (PBS), to a final concentration of 0.125 IU thrombin/ml; 100 μl of this solution was immediately added to each well and incubated at 37° C. for 45 minutes, followed by overnight drying of the plate at 45° C. After incubation with 100 μl/well of 0.2% BSA in PBS for 1 hour, samples (100 μl/well) were incubated for 2 hours at 37° C. For thermodynamic analyses, this incubation was performed at three temperatures (5, 24 and 37° C.). In order to determine the concentration of free tPA remaining in solution after incubation of tPA with fibrin, from which the concentration of bound tPA could be calculated for Scatchard analysis, the contents of duplicate wells were recovered, pooled and subsequently assayed for immunoreactive tPA in a standard quantitative sandwich ELISA.
Briefly, Nunc MaxiSorp microtiter plates were coated with 5 μg/ml of a monoclonal anti-tPA capture antibody (Ab) in 0.05M sodium bicarbonate, pH 9.6, overnight at 4° C. All incubation volumes were 50 μl/well. One-half of wells were left uncoated for determination of nonspecific binding. After aspirating well contents, all wells were blocked with conjugate buffer (1% BSA in 0.05M Tris buffer, pH 8.0, with 0.02% sodium azide) for 1 hour. From this point, all incubations were at 37° C. Each incubation was followed by aspiration of well contents and washes (3×) with PBS-T (PBS with 0.05% Tween 20). […]

tPA(P): Human recombinant tPA (Activase®) irreversibly inhibited with D-phe-L-pro-L-arg-chloromethyl ketone (PPACK)
ΔS° (High affinity): −33.8 cal/mole°
Kassoc (High affinity, 278 K): 4.67e+09 M⁻¹
ΔG° (High affinity, 278 K): -12.3 kcal/mol
Kassoc (High affinity, 297 K): 5.04e+08 M⁻¹
ΔG° (High affinity, 297 K): -11.8 kcal/mol
Kassoc (High affinity, 310 K): 7.65e+07 M⁻¹
ΔG° (High affinity, 310 K): -11.2 kcal/mol
ΔH° (High affinity): -21.7 kcal/mol
ΔS° (Low affinity): −9.93 cal/mole°
Kassoc (Low affinity, 278 K): 5.33e+08 M⁻¹
ΔG° (Low affinity, 278 K): -11.1 kcal/mol
Kassoc (Low affinity, 297 K): 1.2e+08 M⁻¹
ΔG° (Low affinity, 297 K): -11.0 kcal/mol
Kassoc (Low affinity, 310 K): 3.91e+07 M⁻¹
ΔG° (Low affinity, 310 K): -10.8 kcal/mol
ΔH° (Low affinity): -13.9 kcal/mol
Kd (S.E., n=3, read-out: High-Affinity KD @ 37° C.): 10.4 ± 1.4 nM
Kd (abstract of Example 15, read-out: fibrin-binding KD, higher affinity, after PPACK inactivation): ~2 nM
Kd (abstract of Example 15, read-out: fibrin-binding KD, lower affinity, after PPACK inactivation): 33 nM

tPA: Recombinant tissue-plasminogen activator (Activase®, Genentech Inc.), used as the thrombolytic agent [reference compound]
other fibrin-binding affinity in the presence of 50 mM EACA (50 mM EACA): non-measurable level
Kd (50 mM EACA, read-out: remaining fibrin-binding affinity in the presence of 50 mM EACA): 32.9 nM
Kd (37° C., SE, n=3, read-out: High-affinity interaction dissociation constant (KD)): 5.81 ± 4.04 nM
Kd (37° C., read-out: Low-affinity interaction KD): 30.4 ± 14.7 nM
Kassoc 1 (Example 12, 37° C.): 3.13e+08 M⁻¹
Kassoc 2 (Example 12, 37° C.): 3.53e+07 M⁻¹
Kd (Example 12, 37° C., PBS-T, read-out: higher affinity on Scatchard plot): 3.19 nM
Kd (Example 12, 37° C., PBS-T, read-out: lower affinity on Scatchard plot): 28.3 nM
High affinity (Scatchard plot) (representative plot, PBS-T, 37° C., r=0.883): 2e+09 M⁻¹
low affinity (Scatchard plot) (representative plot, PBS-T, 37° C., r=0.904): 1.95e+08 M⁻¹
